For one substance, stoichiometry N results are on record in PMC9052802.

This experiment deals with RopC-U (thiazoline-containing product of the reaction of RopC with MicD-F) (UniProt P03051). In words: SEC.

“RopC-U (thiazoline-containing product of the reaction of RopC with MicD-F) (from UniProt P03051 1-63) (natural protein)”: the stoichiometry N (commonly the number of molecules, sites or subunits per partner or assembly) is 2.
